Source: WO2010106812A1
Residue numbers refer to the chain shown, from its start. Blank lines part the entries; values can stand above or below the binder they belong to.

Molecular target: soluble recombinant human IL-6 receptor (human) (UniProt P08887)
Experiment: Biacore T100, biotinylated SR344 immobilised via streptavidin as model of membrane-type IL-6 receptor, dissociation at pH 7.4 and pH 5.8, 37 degrees C

soluble recombinant human IL-6 receptor (human), sequence (P08887 20-344, form in doubt): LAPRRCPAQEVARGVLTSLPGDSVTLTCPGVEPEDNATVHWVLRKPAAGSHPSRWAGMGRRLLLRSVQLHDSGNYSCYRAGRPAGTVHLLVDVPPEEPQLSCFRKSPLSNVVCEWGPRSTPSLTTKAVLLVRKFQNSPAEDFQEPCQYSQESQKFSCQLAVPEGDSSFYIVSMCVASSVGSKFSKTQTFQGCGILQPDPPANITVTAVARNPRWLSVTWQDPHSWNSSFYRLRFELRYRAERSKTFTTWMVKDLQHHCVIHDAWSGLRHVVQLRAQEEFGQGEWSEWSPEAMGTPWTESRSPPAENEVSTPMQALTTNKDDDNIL

- fold improvement of the pH dependency of the dissociation rate (pH 5.8 against pH 7.4) over TOCILIZUMAB: 11 times
B1: Fv3-M73 (antibody, V domains shown)
VH: QVQLQESGPGLVKPSETLSLTCAVSGHSISHDHAWSWVRQPPGEGLEWIGFISYSGITNYNPTLQGRVTISRDNSKNTLYLQMNSLRAEDTAVYYCARSLARTTAMDYWGEGTLVTVSS
VL: DIQMTQSPSSLSASVGDSVTITCQASRDISSHLNWYQQKPGKAPELLIYYGSHLLSGVPSRFSGSGSGTDFTFTISSLEAEDAATYYCGQGNRLPYTFGQGTKVEIER

- fold increase of the pH dependence of the dissociation rate (pH 5.8 against pH 7.4) over TOCILIZUMAB: 2.6 times
B2: H3pI/L73 (antibody, human IgG1, kappa, V domains shown)
VH: QVQLQESGPGLVKPSETLSLTCAVSGHSISHDHAHSWVRQPPGEGLEWIGYISYSGITNYNPSLKGRVTISRDTSKNQFSLKLSSVTAADTAAYYCARSLARTTAMDYWGEGTLVTVSS
VL: B1 VL with R27Q, D28H, L55H

- fold improvement of the pH dependency of the dissociation rate (pH 5.8 against pH 7.4) over TOCILIZUMAB: 10 times
B3: Fv4-M73 (antibody, V domains shown)
VH: B1 VH with T63S
VL: B1 VL with R27T
